Target: mouse TIGIT-His (SEQ ID NO: 3) (mouse) (UniProt P86176)
Test: BLI (Octet QKe), SEC1 on AMC sensor, mouse TIGIT-His 33 to 1.22 nM, 1:1 global fit

mouse TIGIT-His (SEQ ID NO: 3) (mouse), sequence (P86176 other isoform, or with tags, fused parts or gaps limits assumed, form in doubt): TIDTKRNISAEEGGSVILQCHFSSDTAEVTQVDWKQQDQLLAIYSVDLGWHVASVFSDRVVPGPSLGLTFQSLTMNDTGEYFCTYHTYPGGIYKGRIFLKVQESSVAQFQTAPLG

B1: SEC1 mouse IgG2a N297A (antibody, V domains shown)
VH: EVQLVESGGGLTQPGKSLKLSCEASGFTFSSFTMHWVRQSPGKGLEWVAFIRSGSGIVFYADAVRGRFTISRDNAKNLLFLQMNDLKSEDTAMYYCARRPLGHNTFDSWGQGTLVTVSS
VL: DIVMTQSPSSLAVSPGEKVTMTCKSSQSLYYSGVKENLLAWYQQKPGQSPKLLIYYASIRFTGVPDRFTGSGSGTDYTLTITSVQAEDMGQYFCQQGINNPLTFGDGTKLEIKR
Kd: 0.32 nM | koff: 0.0006 s⁻¹ | kon: 1.9e+06 M⁻¹ s⁻¹

— US20170165366A1
